Legend:
Test in all cases: cell-based or functional assay
[1] = biological target: PAK4 P21(CDKN1A)-activated kinase 4 (UniProt O96013 1-591, limits assumed)
MST4 = MST4 (UniProt Q9P289 1-416, limits assumed)
[2] = biological target: T1, MAP4K2 (GCK) Mitogen-activated protein kinase kinase kinase kinase 2 (UniProt Q12851 1-820, limits assumed)
T1 sequence (looked up): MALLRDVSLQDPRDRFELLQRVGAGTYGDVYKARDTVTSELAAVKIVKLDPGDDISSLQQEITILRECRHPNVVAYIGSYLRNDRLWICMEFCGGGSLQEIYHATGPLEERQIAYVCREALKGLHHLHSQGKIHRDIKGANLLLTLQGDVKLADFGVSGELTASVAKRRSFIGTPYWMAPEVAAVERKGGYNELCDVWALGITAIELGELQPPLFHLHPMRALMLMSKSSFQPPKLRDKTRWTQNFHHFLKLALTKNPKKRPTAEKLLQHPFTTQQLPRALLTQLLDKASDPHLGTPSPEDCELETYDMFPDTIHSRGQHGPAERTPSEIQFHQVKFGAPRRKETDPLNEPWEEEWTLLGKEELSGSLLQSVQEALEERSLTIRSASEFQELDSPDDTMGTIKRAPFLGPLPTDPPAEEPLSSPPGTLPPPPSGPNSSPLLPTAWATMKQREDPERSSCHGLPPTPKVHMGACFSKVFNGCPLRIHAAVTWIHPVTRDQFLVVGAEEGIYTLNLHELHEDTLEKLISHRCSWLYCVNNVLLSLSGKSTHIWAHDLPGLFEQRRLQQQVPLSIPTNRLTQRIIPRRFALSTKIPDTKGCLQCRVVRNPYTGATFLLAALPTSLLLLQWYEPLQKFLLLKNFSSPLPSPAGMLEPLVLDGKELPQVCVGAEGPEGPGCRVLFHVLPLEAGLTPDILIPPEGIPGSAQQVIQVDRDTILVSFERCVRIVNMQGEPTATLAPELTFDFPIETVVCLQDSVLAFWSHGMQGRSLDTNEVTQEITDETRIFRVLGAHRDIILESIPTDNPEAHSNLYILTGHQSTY

[3] = biological target: RPS6KA4 (MSK2) Ribosomal protein S6 kinase, 90 kDa, polypeptide 4 (UniProt O75676 1-772, limits assumed)
PIM2 = PIM2 (UniProt Q9P1W9 1-311, limits assumed)
[4] = biological target: TEK (Tie2) Tyrosine kinase, endothelial (UniProt Q02763 771-1124, limits assumed)
DYRK4 = biological target: T2, DYRK4 (UniProt Q9NR20 1-520, limits assumed)
T2 sequence (looked up): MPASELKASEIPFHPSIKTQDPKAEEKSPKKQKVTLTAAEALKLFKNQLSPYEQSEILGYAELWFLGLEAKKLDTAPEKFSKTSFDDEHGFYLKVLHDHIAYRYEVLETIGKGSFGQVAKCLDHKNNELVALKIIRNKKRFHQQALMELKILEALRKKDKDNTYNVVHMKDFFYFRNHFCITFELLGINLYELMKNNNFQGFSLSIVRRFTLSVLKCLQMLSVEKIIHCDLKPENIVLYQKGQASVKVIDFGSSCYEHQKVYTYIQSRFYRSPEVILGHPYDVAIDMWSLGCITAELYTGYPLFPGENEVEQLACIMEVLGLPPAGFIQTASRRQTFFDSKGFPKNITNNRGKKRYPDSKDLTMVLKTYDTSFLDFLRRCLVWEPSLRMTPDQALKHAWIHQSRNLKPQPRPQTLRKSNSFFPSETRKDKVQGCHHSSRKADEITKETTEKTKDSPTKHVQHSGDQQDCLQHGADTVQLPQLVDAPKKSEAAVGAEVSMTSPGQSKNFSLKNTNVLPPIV
Further: test concentration or dose not given here.

RPS6KA4 (MSK2) Ribosomal protein S6 kinase, 90 kDa, polypeptide 4, sequence (O75676 whole entry): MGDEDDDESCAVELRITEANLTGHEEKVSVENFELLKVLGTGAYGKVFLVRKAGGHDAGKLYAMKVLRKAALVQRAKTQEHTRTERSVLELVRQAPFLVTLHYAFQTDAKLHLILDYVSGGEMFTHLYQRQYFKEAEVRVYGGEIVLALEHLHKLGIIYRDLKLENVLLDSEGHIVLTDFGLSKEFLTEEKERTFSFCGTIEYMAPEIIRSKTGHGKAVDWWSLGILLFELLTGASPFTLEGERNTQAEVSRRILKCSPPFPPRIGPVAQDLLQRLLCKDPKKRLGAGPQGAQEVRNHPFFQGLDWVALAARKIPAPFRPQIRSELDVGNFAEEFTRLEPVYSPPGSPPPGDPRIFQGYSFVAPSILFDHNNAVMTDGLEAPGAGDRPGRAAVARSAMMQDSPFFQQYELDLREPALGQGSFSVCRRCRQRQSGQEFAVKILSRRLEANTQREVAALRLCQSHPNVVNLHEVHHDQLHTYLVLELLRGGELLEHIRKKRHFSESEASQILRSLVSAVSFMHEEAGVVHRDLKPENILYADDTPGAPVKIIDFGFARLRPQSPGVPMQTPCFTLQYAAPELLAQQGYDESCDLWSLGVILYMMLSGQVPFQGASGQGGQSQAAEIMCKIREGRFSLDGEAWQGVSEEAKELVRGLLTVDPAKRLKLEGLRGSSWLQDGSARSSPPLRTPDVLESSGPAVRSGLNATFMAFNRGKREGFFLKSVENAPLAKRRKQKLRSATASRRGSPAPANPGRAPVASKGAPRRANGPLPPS
PIM2, sequence (Q9P1W9 whole entry): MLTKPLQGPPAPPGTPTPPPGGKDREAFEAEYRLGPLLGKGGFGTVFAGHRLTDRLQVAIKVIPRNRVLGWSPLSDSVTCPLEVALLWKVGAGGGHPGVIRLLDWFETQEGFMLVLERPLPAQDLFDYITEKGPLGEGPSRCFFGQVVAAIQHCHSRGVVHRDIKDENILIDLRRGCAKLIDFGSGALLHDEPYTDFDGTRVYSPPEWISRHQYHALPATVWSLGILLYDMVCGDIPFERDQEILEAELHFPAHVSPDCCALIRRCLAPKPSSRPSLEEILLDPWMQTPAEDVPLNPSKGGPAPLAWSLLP
PAK4 P21(CDKN1A)-activated kinase 4, sequence (O96013 whole entry): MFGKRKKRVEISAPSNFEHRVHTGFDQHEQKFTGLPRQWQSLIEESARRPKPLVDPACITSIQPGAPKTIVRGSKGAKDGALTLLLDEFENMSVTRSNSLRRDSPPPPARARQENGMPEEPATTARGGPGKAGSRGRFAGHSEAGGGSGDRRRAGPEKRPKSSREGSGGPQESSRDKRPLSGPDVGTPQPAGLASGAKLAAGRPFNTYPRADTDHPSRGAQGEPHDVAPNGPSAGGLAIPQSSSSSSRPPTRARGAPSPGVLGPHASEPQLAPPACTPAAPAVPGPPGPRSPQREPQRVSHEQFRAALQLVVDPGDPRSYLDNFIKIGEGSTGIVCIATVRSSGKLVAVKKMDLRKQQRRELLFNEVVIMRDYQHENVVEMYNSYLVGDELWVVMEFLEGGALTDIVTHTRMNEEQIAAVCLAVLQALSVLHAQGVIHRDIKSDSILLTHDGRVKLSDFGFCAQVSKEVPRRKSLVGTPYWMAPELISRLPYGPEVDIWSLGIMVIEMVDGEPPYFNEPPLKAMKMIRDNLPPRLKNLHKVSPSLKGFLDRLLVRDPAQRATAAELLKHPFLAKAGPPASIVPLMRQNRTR
MST4, sequence (Q9P289 whole entry): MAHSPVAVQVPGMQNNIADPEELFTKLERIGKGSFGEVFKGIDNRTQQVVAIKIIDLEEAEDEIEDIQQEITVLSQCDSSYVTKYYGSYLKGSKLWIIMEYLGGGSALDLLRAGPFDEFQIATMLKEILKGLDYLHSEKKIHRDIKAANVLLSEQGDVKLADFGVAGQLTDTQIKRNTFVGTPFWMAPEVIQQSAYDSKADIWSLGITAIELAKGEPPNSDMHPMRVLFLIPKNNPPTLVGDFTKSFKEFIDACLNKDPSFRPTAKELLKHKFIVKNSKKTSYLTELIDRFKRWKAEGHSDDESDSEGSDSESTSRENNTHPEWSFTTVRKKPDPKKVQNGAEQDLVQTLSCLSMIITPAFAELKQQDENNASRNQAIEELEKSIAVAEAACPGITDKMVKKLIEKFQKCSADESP
TEK (Tie2) Tyrosine kinase, endothelial, sequence (Q02763 771-1124 limits assumed): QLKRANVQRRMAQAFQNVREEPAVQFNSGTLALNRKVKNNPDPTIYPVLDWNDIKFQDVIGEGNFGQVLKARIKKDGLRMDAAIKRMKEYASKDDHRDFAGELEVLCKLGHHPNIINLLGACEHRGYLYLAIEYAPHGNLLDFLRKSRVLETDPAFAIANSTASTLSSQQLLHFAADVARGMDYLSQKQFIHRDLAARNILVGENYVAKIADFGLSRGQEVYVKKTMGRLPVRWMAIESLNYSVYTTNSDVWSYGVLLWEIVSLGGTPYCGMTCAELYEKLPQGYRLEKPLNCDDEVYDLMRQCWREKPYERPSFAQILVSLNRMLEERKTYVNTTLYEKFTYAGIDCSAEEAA

B1: D3 peptide (peptide)
peptide: SGRPPMIVWFNRPFLIAVSHTHGQTILFMAKVINPVGA
% Inhibition mean [1]: 47% | % Inhibition mean (MST4): 101% | % Inhibition mean [2]: 98.4% | % Inhibition mean [3]: 96.8% | % Inhibition mean (PIM2): 89.9% | % Inhibition mean [4]: 67% | % Inhibition mean (DYRK4): 61.2%

From patent publication US20100184658A1 (published 2010)
